target: eOD-GT8 (monomeric ligand) (Human immunodeficiency virus 1, …); experiment: not given; conditions: not given

Binder | Kd
GT8-D36-10_CLK19 (antibody, V domains shown) VH: QVQLVQSGAEVKKPGASVKVSCKASGYSFTGYYIHWVRQAPGQGLEWMGWTNPNSGGTNYAQKLEGRVTMTRDTSISTAYMELSRLRFDDTAVYYCALAGYRWRFDYWGQGTLVTVSS VL: not shown | 4.3 nM
GT8-D36-6_CLK19 (antibody, V domains shown) VH: QVQLVQSGAEVKKPGASVKVSCKASEYTFTGYYMHWVRQAPGQGLEWMGWINPNSGGTNYVQKFQDRVTMTRDTSINTAYMELSRLRSDDTAVYYCTPVLAYYRWRFDYWGQGTLVTVSS VL: not shown | 2.03 nM
g5-D78-8_CLK09 (antibody, V domains shown) VH: QVQLVQSGAEVKKPGVSVKVSCKASGYTFNGYYMHWVRQAPGQGLEWMGWINPNNGGINIARRFEDRVTMTRDTSITTAHMELSRLRSDDSAVYYCARVGGLWFGEKWTFDIWGQGTMVTVSS VL: DIQMTQSPSSLSASVGDRVTITCQTSQDISTFLNWYQQRPGKAPKLLIYGACNLATGVPSRFSGSGSGTDFTFTISSLQPEDIATYYCQQYEFFGGGTKVEIK | 0.14 nM
GT8-D36-4_CLK09 (antibody, V domains shown) VH: not shown VL: DIQLTQSPSSLSASVGDRVTITCQASQDISSSLNWYQQKTGKAPKVLIYDASNLETGVPSRFSGSGSGTDFTFTISSLQPEDIATYYCQQYEFFGGGTKVEIK | 0.0423 nM
GT8-D36-8_CLK19 (antibody, V domains shown) VH: QVQLVQSGAEVKMPGASVKVSCKASGYTFTGYYMHWVRQAPGQGLEWMGWINPNSGGTNYAQKFQGRVTMTRDTSISTAYMALNSLRSDDAAVYYCAIVLADYRWRFNYWGQGTLVTVSS VL: not shown | 0.411 nM
g5-D78-5_CLK19 (antibody, V domains shown) VH: QVQLVQSGAEVKKPGASVKVSCKASGYTFTDYFLHWVRQAPGQGLEWMGWINPNRGGVNYAQKFQGRVTMTRDTSINTAYMELSRLRSDDTAVYYCTPILTNFRWRFDFWGQGTLVTVSS VL: DIQMTQSPSSLSASVGDRVTITCQASQDIQNYLNWYQQKPGTAPKLLIYDTSNLETGVPSRFSGSGSGTDFIFTISSLQPEDIATYYCQQYEAFGPGTKVDIK | 2 nM
GT8-D36-20_CLK09 (antibody, V domains shown) VH: QVQLVQSGAEVKKPGASVKVSCKASGYTFTGYYIHWVRQAPGQGLKWMGWINPNSGGTNYAQKFQGRVTMTRDTSISTAYLELSRLRSDDTAVYYCARVEGLWTFDIWGQGTMVTVSS VL: DIQMTQSPSSLSASVGDRVTITCQASQDISNYLNWYQQKPGKAPKLLIYDASNLETGVPSRFSGSGSGTDFIFTISSLQSEDMATYYCQQYEFFGGGTKVEIK | 8.37 nM
GT8-D36-19_CLK09 (antibody, V domains shown) VH: QVQLVQSGAEVRKPGASVKVSCKASGYTFTGYYIHWVRQAPGQGLEWMGWINPNSGGTNYEQKFQGRVTMTRDTSISTAYLELSRLRSDDTAVYYCARVEGLWTFDIWGQGTMVTVSS VL: DIQMTQSPSSLSASVGDRVTITCQASQDISNYLNWYQQKPGKAPKLLIYDASNLETGVPSRFSGSGSGTDFTFTISSLQSEDIATYYCQQYEFFGGGTKVEIK | 0.958 nM
GT8-D36-17_CLK09 (antibody, V domains shown) VH: QVQLVQSGAEVKKPGASVKVSCKASGYTFSGYYIHWVRQAPGQGLKWMGWINPNSGGTNYAQKFQGRVTMTRDTSISTAYLELSRLRSDDTAVYYCARVEGLWTFDIWGQGTMVTVSS VL: DIQMTQSPSSLSASIGDRVTITCQASQDISNYLNWYQQKPGKAPKLLIYDASNLETGVPSRFSGSGSGTDFTFTISSLQSEDIATYYCQQYEFFGGGTKVEIK | 4.09 nM
GT8-D36-3_CLK09 (antibody, V domains shown) VH: QVQLVQSGAEVKKPGASVKVSCKASGYTFTGYYMHWVRQAPGQGLEWMGWINPNSGGTNFAQKFQGRVTMTRDTSINTAYMELSRLRSDDSAVFYCARVESKIFDIWGQGTMVTVSS VL: DIQMTQSPSSLSASVGDRVTITCQTSQDISNYLNWYQQKPGKAPKLLIYDASNLETGVPSRFSGSGSGTDFTFTISSLQPEDIATYYCQQYEFFGGGTKVEIK | 0.13 nM
GT8-D36-21_CLK09 (antibody, V domains shown) VH: QVQLVQSGAEVKKPGASVKVSCKASGYTFTGYYIHWVRQAPGQGLKWMGWINPNSGGTNYAQKFQGRVTMTRDTSISTAYLELSRLRSDDTAVYYCARVEGLWTFDIWGQGTMVTVSS VL: DIQMTQSPSSLSASVGDRVTITCQASQDISNYLNWYQQKPGKAPKLLIYDASNLETGVPSRFSGSGSGTDFTFTIGSLQSEDIATYYCQQYEFFGGGTKVEIK | 6.07 nM
GT8-D36-15_CLK09 (antibody, V domains shown) VH: QVQLVQSGAEVKKPGASVKVSCKASGYTFTGHYIHWVRQAPGQGLKWMGWINPNSGGTNNAQKFQGRVTMTRDTSISTAYLELSRLRSDDTAVYYCARVEGLWTFDIWGQGTMVTVSS VL: DIQMTQSPSSLSASVGDRVTITCQASQDISNYLNWYQQTPGKAPKLLIYDASNLETGVPSRFSGSGSGTDFTFTISSLQSEDIATYYCQQFEFFGGGTKVEIK | 260 nM
GT8-D36-16_CLK09 (antibody, V domains shown) VH: QVQLVQSGAEVKKPGASVKVSCKASGYTFTGYYIHWVRQAPGQGLKWMGWINPNSGGTNYAQKFQGRVTMTRDTSISTAYLELSRLRSDDTAVYYCARVEGLWTFDIWGQGTMVTVSS VL: DIQMTQSPSSLSASVGDRVTITCQASQDISNYLNWYQQKPGKAPKVLIYDASNLETGVPSRFSGSGSGTDFTFTISSLQSEDIATYYCQQYEFFGGGTKVEIK | 37.9 nM
g5-D78-6_CLK19 (antibody, V domains shown) VH: QVQLVQSGAEVKKPGASVKVSCKTSGYTFTGYFLHWVRQAPGQGLEWMGWINPNSGGINYAQKFQGRVTMTRDTSIHTAYMELSRLRSDDTAVYYCTPVLTNFRWPFAFWGQGTLVTVSS VL: DIQMTQSPSSLSASVGDRVTITCQASQDIKNYLNWYQQKPGTAPKLLIYDTSNLETGVPSRFSGGGSGTDFTFTISSLQPEDIATYYCQQYETFGPGTKVDIK | 0.26 nM
GT8-D36-2_CLK09 (antibody, V domains shown) VH: QVQLVQSGAEVKKPGASVKVSCKASGYTFTGYYMNWVRQAPGQGLEWMGWINPNSGGTNYAQQFQGRVTMTRDTSISTAYMELSRLKSDDTAVYYCARVDGKKKTFDIWGQGTMVTVSS VL: DIQMTQSPSSLSASVGDRVTITCQASQDISNYLNWYQQKPGKAPKLLIYDVSNLETGVPSRFSGSGSGTAFTFTISSLQPEDIATYYCQQYEFFGGGTKVEIK | 0.997 nM
GT8-D36-14_CLK09 (antibody, V domains shown) VH: not shown VL: DIQMTQSPSSLSASVGDRVTITCQASQDISNYLNWYQQKPGKAPKLLIYDASNLETGVPSRFSGSGSGTDFTFTISSLQPEDIATYYCQQYEFFGGGTKVEIK | 26.9 nM
GT8-D36-5_CLK09 (antibody, V domains shown) VH: not shown VL: DIQMTQSPSSLSASVGDRVTITCQTSQDISNYLNWYQQKPGKAPKLLIYDASNLETGVPSRFSGSGSGTDFTFTISSLQPEDIATYYCQQYEFFGGGTKVEIK | 1.28 nM
GT8-D36-13_CLK09 (antibody, V domains shown) VH: QVQLVQSGAEVKKPGASVKVSCKASGYTFTGYYIHWVRQAPGQGLKWMGWINPNSGGTNYAQKFQGRVTMTRDTSISTAYLELSRLRSDDTAVYYCARVEGLWTFDIWGQGTMVTVSS VL: DIQMTQSPSSLSASVGDRVTITCQASQDISNYLNWYQQKPGKAPKVLIYDASNLETGVPSRFSGSGSGTDFTFTISSLQSEDVATYYCQQYEFFGGGTTVEIK | 534 nM
g5-D78-4_CLK19 (antibody, V domains shown) VH: QVQLVQSGAEVKKPGASVKVSCKASGYIFTDYNMHWVRQAPGQGLEWMGWINPRFGGRNIVQKFQGRVTMTRDTSSSTAYMELSGLRSDDTAVYFCTPVLAPFRWPFAYWGQGTLVTVSS VL: DIQMTQSPSSLSASVGDRVTITCQASQDINYLNWYQQKPGKAPKLLIYDASNLETGVPSRFSGSGSGTDFTFTISSLQPEDIATYYCQQYAAFGPGTKVDIK | 2.1 nM
g5-D78-9_CLK19 (antibody, V domains shown) VH: QVQLVQSGAEVKKPGASVKVSCKASGYIFTDYNMHWVRQAPGQGLEWMGWINPRFGGRNIVQKFQGRVTMTRDTSISTAYMELSGLRSDDTAVYFCTPVLAPFRWPFAYWGQGTLVTVSS VL: DIQMTQSPSSLSASVGDRVTITCQASQDINYLNWYQQKPGKAPKLLIYDASNLETGVPSRFSGSGSGTDFTFTISSLQPEDIATYYCQQYAAFGPGTKVDIK | 2.1 nM
GT8-D36-18_CLK21 (antibody, V domains shown) VH: QVQLVQSGAEVKKPGASVKVSCKTSGYTFTDYYMHWVRQAPGQGLEWMGWINPNSGGTNYAQRFQGRVTMTRDTSISTAYMELSRLRSDDTAVYYCASALRDSQPWWFDPWGQGTLVTVSS VL: DIQMTQSPSTLSASVGDRVTITCRASQSISSWLAWYQQKPGKAPKLLIYKASSLESGVPSRFSGSGSGTEFTLTISSLQPDDFATYYCQQYDTFGGGTKVEIK | 2.63 nM
GT8-D36-22_CLK21 (antibody, V domains shown) VH: not shown VL: DIQMTQSPSTLSASVGDRVTITCRASQSISSWLAWYQQKPGKAPKLLIYKASSLESGVPSRFSGSGSGTEFTLTISSLQPDDFATYYCQQYDTFGGGTRVEIK | 2.94 nM
g5-D78-7_CLK19 (antibody, V domains shown) VH: QVQLVQSGAEVKKPGASVKVSCKASGYTFTGYYIHWVRQAPGQGLEWMGWINPSYGAVNYARKFQGRVTMTRDTSISTAYMELQRLRSDDTAIYHCTIALAGYRWGFDYWGQGALVTVSS VL: DIQMTQSPSSLSAFVGDRVTITCQARLDISYSLNWYQQKPGKAPNLLIYDASNLETGVPSRFSGSGSGTNFTFAISALQPEDIATYYCQQYETFGPGTKVHIK | 23 nM

target: T1, eOD-GT8 (monomeric ligand) (Human immunodeficiency virus 1, …); experiment: SPR; Carterra LSA; kinetics and affinity of antibody–antigen interactions, methods as in Cottrell et al. (ref. 56); who was immobilised is not told (the antigens are called ligands); values for groups are geometric means over the mAbs; conditions: both partners purified
T1 construct: also called eOD-GT8 ligand; GT8-prime ligand

Binder | Kd
CLK21 germline (GL) mAb (antibody, V domains shown) VH: not shown VL: DIQMTQSPSTLSASVGDRVTITCRASQSISSWLAWYQQKPGKAPKLLIYKASSLESGVPSRFSGSGSGTEFTLTISSLQPDDFATYYCQQYGTFGGGTKVEIK | 440 nM

— article PMC11488661 (Science immunology, 2024)
